According to patent US20030064069A1 (CAMBRIDGE ANTIBODY TECHNOLOGY, published 2003):
Numbering of substitutions follows the chain as printed.

B1: CS37 scFv (31G9 VH/CS37 VL) (scFv, V domains shown)
VH: QVQLVQSGGGVVQPGRSLRLSCAASGFTFSSYGMHWVRQAPGKGLEWVAVISYDGSIKYYADSVKGRFTISRDNSKNTLYLQMNSLRAEDTAVYYCARTGEYSGYDTSGVELWGQGTTVTVSS
VL: EIVLTQSPSSLSASVGDRVTITCRASQGIGDDLGWYQQKPGKAPILLIYGTSTLQSGVPSRFSGSGSGTDFTLTINSLQPEDFATYYCLQDSNYPLTFGGGTRLEIK
notes: not shown: scFv linker, domain order and tag (on phage: the pCANTAB6 gene III fusion); WO97/13844 is cited for CS37
B2: JT182 scFv (JT182 VH/CS37 VL) (scFv, V domains shown)
VH: B1 VH with Q6E, G44E, S108P, G109A, V110S, E111P, L112D
VL: B1 VL
notes: used as his-prep; not shown: scFv linker, domain order and His tag
B3: SL15S scFv (SL15 VH/SL15S VL) (scFv, V domains shown)
VH: B1 VH with Q1E, Q6E, G44E, S108D, G109P, V110Q, E111Y, L112S
VL: B1 VL with A25S
notes: soluble scFv was purified by IMAC ('his-preps') and FPLC; also called CAT-191; CAT 191; not shown: scFv linker, domain order and His/other tag (on phage: the pCANTAB6 gene III fusion)

Legend:
[1] = molecular target: T1, Recombinant human TGFβ1 (active TGFβ1) (human, UniProt P01137 279-390); test: radioreceptor assay (RRA): scFv inhibits [125I]TGFβ1 binding to A549 cells; approx IC50
T1 construct: mature; Recombinant human TGFβ1 from R&D Systems; also called TGFb1
Description: (§1) The scFv fragments were subsequently tested for their ability to neutralise binding of ¹²⁵I-TGFβ₁ to A549 cells in a radioreceptor binding assay (RRA), using the protocol described in Example 3 (see below). For the RRA, individual clones were expressed as soluble scFv and subsequently purified from periplasmic preparations by immobilised metal affinity chromatography (IMAC) followed by fractionation of monomeric scFv by gel filtration FPLC on a Superdex 75 column (Pharmacia).
(§2) A549 cells were seeded into 24-well plates at 2×10⁵ cells per well for 24 hours in order to achieve >90% confluency. Immediately before the assay, monolayers were washed twice with buffer (1:1 DMEM:Hams-F12) and 0.5 ml assay buffer (1:1 DMEM:Hams F12+0 1% BSA) was added. Two or three-fold serial dilutions of antibodies were prepared in assay buffer and added to an equal volume of 40 pM [¹²⁵I]TGFβ₁ in assay buffer.

[2] = molecular target: T2, Recombinant human latent TGFβ1 (human, UniProt P01137 30-278; P01137 279-390); test: radioreceptor assay and TF1 proliferation assay in the presence of latent TGFβ1
T2 construct: domain: latency associated peptide;mature; From R&D Systems

[3] = molecular target: T1, Recombinant human TGFβ1 (active TGFβ1); test: radioreceptor assay: inhibition of [125I]TGFβ1 binding to A549 cells; reference CS37 scFv
Description: as §1, §2

[4] = molecular target: T1, Recombinant human TGFβ1 (active TGFβ1); test: radioreceptor assay, his-preps of scFv (FIG. 2); reference JT182 scFv
Protocol: as §2
Purified preparations of SL15S scFv, SL15A IgG4, SL15S IgG4 and Mab ID.11.16 (Genzyme mAb) were also analysed (FIG. 3).

T1 sequence (P01137 279-390 limits assumed): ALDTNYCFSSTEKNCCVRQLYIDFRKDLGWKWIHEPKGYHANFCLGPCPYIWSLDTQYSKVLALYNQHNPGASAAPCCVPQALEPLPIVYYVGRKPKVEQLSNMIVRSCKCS
T2 sequence (P01137 30-278 limits assumed, chain 1 of 2): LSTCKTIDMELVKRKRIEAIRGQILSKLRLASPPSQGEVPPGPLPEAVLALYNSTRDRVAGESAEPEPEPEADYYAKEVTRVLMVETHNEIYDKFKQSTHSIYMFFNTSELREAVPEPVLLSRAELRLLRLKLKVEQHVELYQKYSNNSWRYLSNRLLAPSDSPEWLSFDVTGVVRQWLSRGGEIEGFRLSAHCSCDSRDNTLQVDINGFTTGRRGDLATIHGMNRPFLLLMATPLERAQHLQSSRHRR
T2 sequence (P01137 279-390 limits assumed, chain 2 of 2): as the sequence (P01137 279-390 limits assumed) above

Row | Binder | IC50 [1] | binding result [2] | fold better than CS37 (IC50 in the RRA) [3] | fold more active than JT182 scFv [4]
1 | B1 | 10 to 15 nM |  |  | 
2 | B2 | 0.5 to 1 nM |  |  | 
3 | B3 | ~0.1 nM | no binding | ≥ 100 fold | 10 fold
